Test results: US20210171947A1 (PAIRWISE PLANTS SERVICES, published 2021)

Target: 4xSH3lig::Cas12a (SEQ ID NO: 187)
Experiment: cell-based or functional assay

B1: VirD2::SH3dom (SEQ ID NO: 186) (other)
chain: MPDRAQVIIRIVPGGGTKTLQQIINQLEYLSRKGRLELQRSARHLDIPLPPDQIHELARSWVQETGTYDESQPDEERQQELTTHIIVSFPAGTSQVAAYAASREWAAEMFGSGAGGGRYNYLTAFHIDRDHPHLHVVVNRRELLGHGWLKISRRHPQLNYDALRIKMAEISLRHGIALDASRRAERGITERPITYAQYRRLEREQARQIRFEDADLEQSSPQGDHPEFSQPFDTSPFEASAGGPEDMPRPNNRQNESQVHLQEPAGVSNEAGVLVRVALETERLAQPFVSETILADDIGSGSSRVAEGRVESANRTPDIPRAATEAATHTTHDRQRRAKRPHDDDGGPSGAKRVTLEGIAVGPQANAGEQDGSSGGSSGGSMSGSKKRRIKQDAEYVRALFDFNGNDEEDLPFKKGDILRIRDKPEEQWWNAEDSEGKRGMIPVPYVEKYSGSGGSSGGSSGPLVRQAGTSRPSPPTATTRASTATDSLSATAHLQQRRGVLSKRPREDDDGEPSERKRERDERSKDGRGGNRR
increase of green shoots over the negative control, EF1α site: ~3 fold
increase of green shoots over the negative control, polyubiquitin site: ~2 fold
